B1: N-terminal FN 30-kDa heparin-binding fragment (FN30) (domain or fragment)
chain: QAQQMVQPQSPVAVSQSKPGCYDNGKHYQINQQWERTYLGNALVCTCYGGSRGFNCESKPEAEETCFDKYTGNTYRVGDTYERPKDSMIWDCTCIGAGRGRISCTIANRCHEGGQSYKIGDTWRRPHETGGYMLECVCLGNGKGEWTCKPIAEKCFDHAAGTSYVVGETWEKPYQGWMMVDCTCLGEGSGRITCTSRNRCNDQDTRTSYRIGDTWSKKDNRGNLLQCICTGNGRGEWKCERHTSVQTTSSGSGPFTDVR
B2: 45-kDa gelatin-binding FN fragment (FN45) (domain or fragment)
chain: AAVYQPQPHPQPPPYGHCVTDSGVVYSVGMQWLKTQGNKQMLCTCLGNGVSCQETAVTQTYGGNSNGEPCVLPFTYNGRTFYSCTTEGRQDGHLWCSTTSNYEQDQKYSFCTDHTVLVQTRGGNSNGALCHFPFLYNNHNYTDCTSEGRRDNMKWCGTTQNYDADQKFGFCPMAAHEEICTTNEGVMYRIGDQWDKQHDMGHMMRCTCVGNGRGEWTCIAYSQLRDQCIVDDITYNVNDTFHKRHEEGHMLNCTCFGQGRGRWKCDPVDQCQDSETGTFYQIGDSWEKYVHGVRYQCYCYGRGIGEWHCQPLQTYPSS

Target: HSP90αM domain (solid phase assays of Figure 2B and 2C)
Experiment: ELISA

| Binder | Kd [nM] |
| --- | --- |
| B1 | 65.1 |
| B2 | 222 |

From paper PMC7072298 (2020)
